Test results: patent publication US20260117244A1, “INHIBITORY RNA FOR THE CONTROL OF PHYTOPATHOGENS” (priority 2021, published 2026)

B1: 15 (nucleic acid, listed as Golovinomyces orontii)
chain: CCTTTTGATTACTCCGCCCAACTTTTTTTTTTTAGGTTTTCAGTACTTCACCCTAGGAAGCTCCTCAATCATCATTTCTGAAAAGATGTCATCGTCTCTAGACCAACTTAAATCCACTGGAACTACTATTGTCTGTGATTCAGGTGATTTTGAATCAATTGGCAAATATAAACCTC
modifications: listed as DNA
B2: OEC70 dsRNA: long dsRNA against G. orontii effector candidate 70 (target SEQ ID NO:123) (nucleic acid)
chain: ACAGAGACCGTAACCGTAACTGTCTGTGCACCATCTGCCTCTGCCCATCCCTCTTCGGGATATGCTATGCCATCAGTCTATCCGGCACCAGTTTCATCAGACCCTGCCAGTCCTGCATACCCGCCAAGCGCTTCTGGTGGCTACTCCTCTCCACCACCAAACCAAACTCCAGCACCATTCACCGGCGCCGCTTCAGCAAACGCAGCTCAGGTAGTATCAGCCATTATTGCTGC
modifications: misc_feature 1..233: note = Inhibitory double stranded RNA; listed as RNA
B3: AATF dsRNA: long dsRNA against G. orontii apoptosis antagonizing transcription factor (target SEQ ID NO:92) (nucleic acid)
chain: TCCGAAGGAGAGTATTCATCAGAAACTCAGGTTTCAGAATACTCGGACGATCAACTCAACTCTGATAATCTTGAAGATGAAGAATCTGATAGTGATGATGATGATGATATTGGAGATGAAAGAACCGAACGATCCGAAATTCAGAAAATCATGAAAGAAGATCAAAAGACCGTGGTATCAACAATATCTCAAGCAGTAAAAGCAGATGTTGAAAAGGGTAAAGCTGTCAAGGCTCAGCGAATGAGATTCGATTGTTTGTTAAATGTACGAATGGCAATGCAAAA
modifications: misc_feature 1..284: note = Inhibitory double stranded RNA; listed as RNA
B4: LIP1 dsRNA: long dsRNA against G. orontii TAG lipase 1 (target SEQ ID NO:1) (nucleic acid)
chain: ACCTCTGCTGGTTCTATCTCTGCTTTTAACTTATTAGTCGCCAAAGATGGTGCTTTATCTTATAATGGCAAACCGCTATTCCGTGCTGCTATTATGGACAGTGGTAGCATCGTGCCTACTGATGCGGTGAACTCCCCGAAGCCACAAAATGTTTTCGATCAAGTCGTGAGTGCTGGAGGCTGTAGTGAAGCATATGACAAAATTAGCTGTCTACGGAATCTCGACTACACCGAGTTTTTGTTCGCAAGTACATCAGTTCCTGGTCTATTTGACTACCAATCAGTAGCACTTTCATACATCCCGCGACCTGACGGTGATCTTTTGACCGCATCTATGGATGAATT
modifications: misc_feature 1..344: note = Inhibitory double stranded RNA; listed as RNA
B5: BCDO dsRNA: long dsRNA targeting G. orontii MGH1 BCDO (target SEQ ID NO:145) (nucleic acid)
chain: ACTGCTCATAGTAATCCTATCCTATTTGCCCGGCTCGACTCAGGTGATCAAAAGGATTAGTGTAGCTAACACCAATATCTTATACCATGATGGACGGGCTTTGGCGACCTGCGAAAGTGGCCCACCAATGAGAGTTGTTCTCCCTCATCTGGATACAGTCGGTTGGTTCGATGGGCTGAAGGTAGGGGGAGAAAAGGCTACCGATGAATCGGACGGTCAATCCTTTGCGAAAGAAGGAACCTTTAATGTATTGGATGGACGGACAAC
modifications: misc_feature 1..267: note = Inhibitory double stranded RNA; listed as RNA
B6: CYP51 dsRNA-1: long dsRNA targeting G. orontii MGH1 CYP51 (target SEQ ID NO:85); link to SEQ ID NO:212 likely (nucleic acid)
chain: TACGTGAAGAAGTGTCCCAGCTTCAAAGGACAAAAAGGCACCGTTAATATAACTGAAGTTATGGCTGAAATCACTATCTACACTGCTTCGCATACTCTACAAGGAAAACAGGTTCGTGACAGGTTTGATTCCTCTTTTGCCGCTCTCTATCATGACCTCGATATGGGGTTCACCCCAATTAATTTTGTGCTGCATTGGG
modifications: misc_feature 1..199: note = Inhibitory double stranded RNA; listed as RNA
B7: OEC14 dsRNA: long dsRNA against G. orontii effector candidate 14 (target SEQ ID NO:124) (nucleic acid)
chain: CACAACAGCTCTCCTAATCTCTCCCTCCCTAGGAGTTAATTCAGCTCAGAACGGCGAAACTCCCGATGACGATTCATTAGGTTCTACGAAACACATGAACTTTGGCTCTGGTCTCTCTGAATTCAATGCTCATGAAGATATGTATGTTCCTGCCATGGATCTGAATGGGTTTAGAATAAAGCGACGACATTTTCAAAATGAAGGCTATTACTGCAGCAAATCG
modifications: misc_feature 1..223: note = Inhibitory double stranded RNA; listed as RNA
B8: 2 (nucleic acid, listed as Golovinomyces orontii)
chain: ATGTCTAGGCATACATCTGCATTTTTCGTTCTCTTTCCTACATTATTCGTCATATTAGCCAGTGCCTATCAATCACACTATGGCTCATCCTATCATCAGCAAGAGTCTCTTCAATCTGACGCACAATGGAATAGCAATATCTCTGATACTTTATTCCTGGAGCTAGAGGAACTAGCTCGTATCGTTGATATTGCTTACTGTGTTGGTACAACAGGAATCTCTAGCCCTTTTGTATGCGCCTCGCATTGCAGCGATTTTCCAAGCTTTGAACTCGTGGATACATTCCATTCAGGATACTTATTGGGCAATAGTTGCGGTTACATTGCACTTGATCATGCGTCGGACAATAACAGAGGACGAATACTGGTAGTTTTCAGGGGTACATACAGTATCGACGACACTATAATAGACCTGACTATGGTACCACAAAAGTACGCGCCATACCCGTCTCATCACGAAAATAATTTCAAAAGATCAGAATCAAGCCCACTTTTTAATTTAATACCTAGTAAAGAAATTCGGTCCCTCTTACGCTCATTCTCACGTATATTTCATCGTCGAAAAGGAAGTAGGCCAGAAAGACATATGCACTCTAACATTGAATGTACGAACTGCACTGTTCATATGGGATTTTGGACAAGCTACCAACAAATACGTCCTCATTTATTCTCCAAGATTAGTAGCCTTCGAAAAAAATTCCCTAACTATCGATTGGATTTAGTCGGACACTCACTAGGTGGCGCTGTTGCTGCTCTTGCTGGACTTGATCTTAAATTACTTGGATACGAACCTATCGTAACAACCTTTGGTGAGCCACGCGTTGGAAATACTGGATTCAGAGATTTCATGGATGCCACATTTAACCTACGCTCCCAGAACTCAGGGGGTCATTTAGACATGCCAAGCTGCAAAGATCACTATCGTAGAGTGACTCATACAAGTGATCCTATGCCATTACTACCGCCGCAAGATTTTGGCTATCGCCCACATGCTGGCGAGGTATTCATCTCAAAACGAGATCTTCCAGTGGCAATACAAGACGTTCGTCACTGTTTTGGTGACGATGATGTGAACTGTATCGAGGAAAGAGGAAACAATAGAGTTTGGACTGATTTATCTGAGACGTCGAAAATAAGAGCCGGCACCAAAGACTCCTTAGATGCCAGGGGTGGCGAATTGAAAAAACGAGATAGGGTACGATTACATCCTCCCCATCTTTGGCGACCCTTTCTAGCGCATCGTGACTATTTTTGGCGCCTAGGATTATGCGTTCCAGGAGATGATCCAACTGGTCAAGTAAGAGACGAGGTTTAG
modifications: listed as DNA
B9: APC1 dsRNA: dsRNA against G. orontii APC1, Anaphase promoting complex/20S cyclosome subunit (target SEQ ID NO:163) (nucleic acid)
chain: AGATTGGTATTATCTCGCCTGAATATGCAACGTTTAGAAGTTCTATTCAGACAAAGCCGACTCTTAATCAACGCAAGGTTTTTACGGTGGCGCCGCCCTTGTGCGCTTCTGACGATGTACAGGAGAATTCTTGTATTATTTGTATCCTTGATCCTAATGAAAAGAAACTTATTACTGTAAATTTAAATATCAAGGCCTCGGAGCAAAAAAGTGAACTCGCAAAATCGGAAAATCTAAAATCTAAGAAAGAGGCAACTACAGTGTCACTT
modifications: misc_feature 1..269: note = Inhibitory double stranded RNA; listed as RNA
B10: LIPA dsRNA: long dsRNA against G. orontii TAG lipase A (target SEQ ID NO:2) (nucleic acid)
chain: CTCTTACGCTCATTCTCACGTATATTTCATCGTCGAAAAGGAAGTAGGCCAGAAAGACATATGCACTCTAACATTGAATGTACGAACTGCACTGTTCATATGGGATTTTGGACAAGCTACCAACAAATACGTCCTCATTTATTCTCCAAGATTAGTAGCCTTCGAAAAAAATTCCCTAACTATCGATTGGATTTAGTCGGACACTCACTAGGTGGCGCTGTTGCTGCTCTTGCTGGACTTGATCTTAAATTACTTGGATACGAACCTATCGTAACAAC
modifications: misc_feature 1..278: note = Inhibitory double stranded RNA; listed as RNA
B11: OEC60/OEC61 dsRNA: long dsRNA against G. orontii effector candidate 60/61 (target SEQ ID NO:122) (nucleic acid)
chain: CACAAAATGGGCCAAATGGGAAATTGTCGAGCTAATTGTGATTGGAAACGAAGCCCTATTTAATGGCCATACTTCTCCAGATGAGCTCGCAAGATTTATTAGCTCAACCAGAAATACACTACGATCCTCTGGTTACAATGGACCTTGCACAACAGCTGAGCCTCTCAATATCTGGCAGCAAAGCTCGGATGTATTGTGTGGT
modifications: misc_feature 1..202: note = Inhibitory double stranded RNA; listed as RNA

System: G. orontii MGH1
Test: Spray-induced gene silencing (SIGS), G. orontii spore production on A. thaliana (whole plant and detached leaf assays)
Type: in vivo, Golovinomyces orontii
Details: for effect on spore production: long dsRNA; for effect on spore production / average reduction in spore production: vs buffer control
[1] = topical dsRNA against G. orontii target (Gor Seq ID), n>=3
[2] = A. thaliana detached leaf assay

Molecule	average reduction in spore production [2] [%]	average reduction in spore production (A. thaliana whole plant assay) [%]	also measured
B1			G. orontii Spore Production on Arabidopsis, Detached Leaf Assay, % reduction [1]: 38%
B2			effect on spore production (A. thaliana whole plant assay): significantly reduced spore production
B3	32	21	
B4	51	22	
B5	54	50	
B6	30	46	visual powdery mildew coverage and density (A. thaliana plants, 9 days post infection, vs buffer control-sprayed plants): less powdery mildew coverage and density
B7			effect on spore production (A. thaliana whole plant assay): significantly reduced spore production
B8			G. orontii Spore Production on Arabidopsis, Detached Leaf Assay, % reduction [1]: 67%; G. orontii Spore Production on Arabidopsis, Whole Plant Assay, % reduction (topical dsRNA against G. orontii target (Gor Seq ID), whole plant assay, n>=3): 41%
B9			reduction in spore production (assay format not stated): 48%
B10	67	41	
B11			effect on spore production (A. thaliana whole plant assay): significantly reduced spore production
